Reference: patent publication US20250042968A1, “EPHRIN LIGAND MIMETIC PEPTIDES FOR THE TREATMENT OF NEURODEGENERATIVE DISEASES” (University of Miami, priority 2022, published 2025)

How the values were obtained:
Assay in all cases: BLI
Conditions in all cases: modification not given
EphB3, P54753 = target: T1, EphB3, P54753
T1 chain: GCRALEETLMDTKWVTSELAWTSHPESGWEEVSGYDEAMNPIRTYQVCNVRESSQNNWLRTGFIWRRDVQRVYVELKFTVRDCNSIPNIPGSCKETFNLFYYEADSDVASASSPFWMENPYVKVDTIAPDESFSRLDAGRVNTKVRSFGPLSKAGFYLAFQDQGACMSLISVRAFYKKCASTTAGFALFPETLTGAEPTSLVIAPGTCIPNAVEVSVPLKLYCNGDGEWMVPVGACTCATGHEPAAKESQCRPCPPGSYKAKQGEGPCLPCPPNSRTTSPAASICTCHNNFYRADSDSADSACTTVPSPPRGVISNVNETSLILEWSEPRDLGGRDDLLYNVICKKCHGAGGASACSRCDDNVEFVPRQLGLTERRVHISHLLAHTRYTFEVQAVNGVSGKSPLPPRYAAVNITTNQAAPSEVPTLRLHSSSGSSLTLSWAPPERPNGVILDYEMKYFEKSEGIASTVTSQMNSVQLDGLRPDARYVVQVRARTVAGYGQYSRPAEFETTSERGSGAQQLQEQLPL

EphB2, P29323 = target: T2, EphB2, P29323
T2 chain: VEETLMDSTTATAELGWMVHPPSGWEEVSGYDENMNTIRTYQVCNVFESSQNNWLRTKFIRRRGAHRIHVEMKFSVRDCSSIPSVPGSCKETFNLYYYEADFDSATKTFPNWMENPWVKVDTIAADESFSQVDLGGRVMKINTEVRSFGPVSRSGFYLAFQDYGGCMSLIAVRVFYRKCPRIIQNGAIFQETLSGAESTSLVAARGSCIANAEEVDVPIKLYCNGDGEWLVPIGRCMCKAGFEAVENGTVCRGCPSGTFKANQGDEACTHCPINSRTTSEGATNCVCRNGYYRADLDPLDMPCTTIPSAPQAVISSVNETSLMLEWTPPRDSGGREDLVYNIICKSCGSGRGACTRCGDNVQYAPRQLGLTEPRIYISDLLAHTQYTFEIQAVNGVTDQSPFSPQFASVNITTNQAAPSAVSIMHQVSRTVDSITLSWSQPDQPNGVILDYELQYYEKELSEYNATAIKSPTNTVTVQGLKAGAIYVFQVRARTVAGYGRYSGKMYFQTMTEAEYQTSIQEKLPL

EphA2, P29317 = target: EphA2, P29317
Sequence of EphA2, P29317 (P29317 25-534): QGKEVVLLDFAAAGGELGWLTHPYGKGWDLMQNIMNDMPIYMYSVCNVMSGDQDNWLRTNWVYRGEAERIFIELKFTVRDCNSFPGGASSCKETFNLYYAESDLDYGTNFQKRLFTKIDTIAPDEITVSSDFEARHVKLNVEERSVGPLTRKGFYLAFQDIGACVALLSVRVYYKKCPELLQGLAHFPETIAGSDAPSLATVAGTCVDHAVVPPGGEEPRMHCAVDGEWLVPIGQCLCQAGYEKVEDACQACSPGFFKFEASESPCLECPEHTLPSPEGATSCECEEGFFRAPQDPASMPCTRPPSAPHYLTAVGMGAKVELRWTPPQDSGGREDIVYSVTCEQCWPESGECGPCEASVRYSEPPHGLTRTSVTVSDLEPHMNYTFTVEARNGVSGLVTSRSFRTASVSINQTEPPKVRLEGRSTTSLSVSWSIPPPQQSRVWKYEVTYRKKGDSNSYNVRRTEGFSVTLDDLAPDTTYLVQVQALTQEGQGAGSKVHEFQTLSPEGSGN

Binder: KFQLFSPFLWGFEF [xEFN_RBD2]
- Kd (EphB3, P54753): 5070 µM

Binder: QEFSPNLWGLEFKKN [xEFN_RBD4]
- Kd (EphB2, P29323): 263 µM
- Kd (EphA2, P29317): 178 µM
- Kd (EphB3, P54753): 156 µM
